Article doi:10.1101/2019.12.16.876623 (bioRxiv, 2019)

B1: Exo1-Flag (recombinant, untreated) (natural protein, yeast, UniProt P39875 1-702, looked up)
chain: MGIQGLLPQLKPIQNPVSLRRYEGEVLAIDGYAWLHRAACSCAYELAMGKPTDKYLQFFIKRFSLLKTFKVEPYLVFDGDAIPVKKSTESKRRDKRKENKAIAERLWACGEKKNAMDYFQKCVDITPEMAKCIICYCKLNGIRYIVAPFEADSQMVYLEQKNIVQGIISEDSDLLVFGCRRLITKLNDYGECLEICRDNFIKLPKKFPLGSLTNEEIITMVCLSGCDYTNGIPKVGLITAMKLVRRFNTIERIILSIQREGKLMIPDTYINEYEAAVLAFQFQRVFCPIRKKIVSLNEIPLYLKDTESKRKRLYACIGFVIHRETQKKQIVHFDDDIDHHLHLKIAQGDLNPYDFHQPLANREHKLQLASKSNIEFGKTNTTNSEAKVKPIESFFQKMTKLDHNPKVANNIHSLRQAEDKLTMAIKRRKLSNANVVQETLKDTRSKFFNKPSMTVVENFKEKGDSIQDFKEDTNSQSLEEPVSESQLSTQIPSSFITTNLEDDDNLSEEVSEVVSDIEEDRKNSEGKTIGNEIYNTDDDGDGDTSEDYSETAESRVPTSSTTSFPGSSQRSISGCTKVLQKFRYSSSFSGVNANRQPLFPRHVNQKSRGMVYVNQNRDDDCDDNDGKNQITQRPSLRKSLIGARSQRIVIDMKSVDERKSFNSSPILHEESKKRDIETTKSSQARPAVRSISLLSQFVYKGK
B2: Exo1-Flag (recombinant, treated with CDK1-cyclin B) (natural protein, yeast, UniProt P39875 1-702, looked up)
chain: B1 chain
modifications: phosphorylated in vitro with CDK1-cyclin B; sites not stated
B3: Exo1-Flag (recombinant, treated with lambda phosphatase) (natural protein, yeast, UniProt P39875 1-702, looked up)
chain: B1 chain
modifications: dephosphorylated with lambda phosphatase

Target: T1, His-MBP-Cdc5 T238D (S. cerevisiae, UniProt P32562 1-705, T238D)
T1 sequence (looked up): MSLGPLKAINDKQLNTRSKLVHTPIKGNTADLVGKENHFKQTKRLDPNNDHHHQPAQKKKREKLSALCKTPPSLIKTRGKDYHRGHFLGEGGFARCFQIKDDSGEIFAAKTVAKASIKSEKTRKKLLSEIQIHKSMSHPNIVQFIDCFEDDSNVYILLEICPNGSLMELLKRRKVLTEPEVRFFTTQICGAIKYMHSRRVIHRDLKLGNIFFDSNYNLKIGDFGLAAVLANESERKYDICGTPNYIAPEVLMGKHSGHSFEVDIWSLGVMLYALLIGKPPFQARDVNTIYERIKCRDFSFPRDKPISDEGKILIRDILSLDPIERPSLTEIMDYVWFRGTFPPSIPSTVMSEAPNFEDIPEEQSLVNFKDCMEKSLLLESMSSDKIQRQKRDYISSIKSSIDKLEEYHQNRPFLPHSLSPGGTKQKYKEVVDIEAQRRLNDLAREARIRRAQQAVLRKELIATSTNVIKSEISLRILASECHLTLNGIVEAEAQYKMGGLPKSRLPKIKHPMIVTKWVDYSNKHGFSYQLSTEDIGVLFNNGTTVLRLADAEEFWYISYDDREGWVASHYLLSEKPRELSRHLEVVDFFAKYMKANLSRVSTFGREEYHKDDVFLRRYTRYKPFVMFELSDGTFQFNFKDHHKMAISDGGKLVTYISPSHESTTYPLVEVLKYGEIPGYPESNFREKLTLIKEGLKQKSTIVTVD
Assay: pull-down

Binding result, binds:
B1
B2
B3
